# Reference: the RNAGym collection of RNA variant scans (doi:10.1021/acssynbio.7b00057)
# B1: Pistol ribozyme (parent)
# chain: GGGUCGUUGUUCCAUAAUCGCGUGGAUAUGGCACGCAAGUUUCUACCGGGCACCGUAAAUGUCCGACUGGAGCCGUUCGGGCGGCUAUAAACAGACCUCAGGCCCGAAGCGUGGCGGCACCUGCCGCCGGUGGUAAAAAAGAUCGGAAGAGCACACGUCU
# Variants of: B1
# Assay: aptazyme ON/OFF ratio, guanine; higher = stronger switching; co-transcriptional cleavage with and without guanine
row,Variant,aptazyme ON/OFF ratio
1,U7A U8A G9U U11C C12U C13U,1.32
2,U7A U8A G9U U11C C12U C13G,1.02
3,U7A U8A G9U U11C C12U C13A,1.18
4,U7A U8A U10G C12A C13G,1.06
5,U7A U8A U10G C12A C13A,1.21
6,U7A U8A U10G C12A C13U,1.19
7,U7A U8A U10A U11A C12U,1.2
8,U7A U8A U10A U11A C12G,1.19
9,U7A U8A U10A U11A C12A,1.18
10,U7A U8A G9U U11G C13A,1.13
11,U7A U8A G9U U11G C13G,1.08
12,U7A U8A G9U U11G C13U,1.16
13,U7A U8A U10A C12U C13U,1.2
14,U7A U8A U10A C12U C13A,1.28
15,U7A U8A U10A C12U C13G,1.1
16,U7A U8A U10C U11G C12U,1.45
17,U7A U8A U10C U11G C12A,1.09
18,U7A U8A U10C U11G C12G,1.34
19,U7A U8A U10A U11C C12G C13A,1.06
20,U7A U8A U10A U11C C12G C13G,1.24
21,U7A U8A U10A U11C C12G C13U,1.15

row,Variant,aptazyme ON/OFF ratio
1,U7A U8A G9U U11A C12G,1.33
2,U7A U8A G9U U11A C12U,1.15
3,U7A U8A G9U U11A C12A,1.25
4,U7A U8A G9U U10C U11C C12A C13G,1.12
5,U7A U8A G9U U10C U11C C12A C13A,1.04
6,U7A U8A G9U U10C U11C C12A C13U,1.05
7,U7A U8A G9U U10G U11G C13U,1.17
8,U7A U8A G9U U10G U11G C13A,1.24
9,U7A U8A G9U U10G U11G C13G,1.3
10,U7A U8A U10C C12A C13A,1.13
11,U7A U8A U10C C12A C13G,1.08
12,U7A U8A U10C C12A C13U,1.18
13,U7A U8A G9U U10C U11G C12U,1.22
14,U7A U8A G9U U10C U11G C12A,1.04
15,U7A U8A G9U U10C U11G C12G,1.15
16,U7A U8A G9U U10G U11A C12G C13A,1.18
17,U7A U8A G9U U10G U11A C12G C13U,1.51
18,U7A U8A G9U U10G U11A C12G C13G,1.4
19,U7A U8A G9U U10C U11C C13G,1.04
20,U7A U8A G9U U10C U11C C13U,1.04
21,U7A U8A G9U U10C U11C C13A,1.04

row,Variant,aptazyme ON/OFF ratio
1,U7A U8A U10G C12U C13U,1.42
2,U7A U8A U10G C12U C13G,1.13
3,U7A U8A U10G C12U C13A,1.51
4,U7A U8A G9U U10G U11C C12G,1.2
5,U7A U8A G9U U10G U11C C12A,1.33
6,U7A U8A G9U U10G U11C C12U,1.08
7,U7A U8A G9U U10C C12U C13G,1.15
8,U7A U8A G9U U10C C12U C13A,1.19
9,U7A U8A G9U U10C C12U C13U,1.43
10,U7A U8A G9U U10G U11A,1.03
11,U7A U8A G9U U10G U11G,1.09
12,U7A U8A G9U U10G U11C,1.05
13,U7A U8A U10G C13A,1.31
14,U7A U8A U10G C13U,1.22
15,U7A U8A U10G C13G,1.12
16,U7A U8A G9U U10G C12A C13U,1.19
17,U7A U8A G9U U10G C12A C13G,1.09
18,U7A U8A G9U U10G C12A C13A,1.38
19,U7A U8A G9U U11C C12G C13A,1.18
20,U7A U8A G9U U11C C12G C13U,1.29
21,U7A U8A G9U U11C C12G C13G,1.04

row,Variant,aptazyme ON/OFF ratio
1,U7A U8A G9U U10C U11C C12A,1.04
2,U7A U8A G9U U10C U11C C12G,1.06
3,U7A U8A G9U U10C U11C C12U,1.02
4,U7A U8A G9U U10G C13G,1.21
5,U7A U8A G9U U10G C13U,1.36
6,U7A U8A G9U U10G C13A,1.24
7,U7A U8A U10A C12A C13A,1.23
8,U7A U8A U10A C12A C13G,1.03
9,U7A U8A U10A C12A C13U,1.37
10,U7A U8A G9U U11G,1.36
11,U7A U8A G9U U11C,1.09
12,U7A U8A G9U U11A,0.956
13,U7A U8A U10A U11G C12G C13G,1.6
14,U7A U8A U10A U11G C12G C13A,0.986
15,U7A U8A U10A U11G C12G C13U,1.35
16,U7A U8A U10C U11G C12A C13G,1.16
17,U7A U8A U10C U11G C12A C13A,1.12
18,U7A U8A U10C U11G C12A C13U,1.12
19,U7A U8A G9U U11C C12U,1.13
20,U7A U8A G9U U11C C12A,1.17
